Experimental data taken from publication PMC4072508, “Genome-Wide Prediction and Validation of Peptides That Bind Human Prosurvival Bcl-2 Proteins” (PLoS Computational Biology, 2014).

T1: Bfl-1, Q16548
T1 chain: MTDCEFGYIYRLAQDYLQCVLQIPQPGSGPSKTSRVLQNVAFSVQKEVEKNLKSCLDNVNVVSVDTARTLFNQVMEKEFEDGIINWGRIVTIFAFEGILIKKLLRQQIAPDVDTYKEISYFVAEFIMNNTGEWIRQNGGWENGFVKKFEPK

T2: Mcl-1, Q07820
T2 chain: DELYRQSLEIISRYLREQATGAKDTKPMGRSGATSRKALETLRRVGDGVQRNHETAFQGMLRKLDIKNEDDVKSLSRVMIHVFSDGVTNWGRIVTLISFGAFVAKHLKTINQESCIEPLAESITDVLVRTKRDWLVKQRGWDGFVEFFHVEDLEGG

T3: Bcl-w, Q92843
T3 chain: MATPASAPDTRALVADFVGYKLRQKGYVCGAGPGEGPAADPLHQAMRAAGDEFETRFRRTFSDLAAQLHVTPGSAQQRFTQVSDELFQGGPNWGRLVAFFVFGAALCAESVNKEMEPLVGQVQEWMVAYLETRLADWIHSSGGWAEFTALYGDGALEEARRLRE

T4: Bcl-2, P10415
T4 chain: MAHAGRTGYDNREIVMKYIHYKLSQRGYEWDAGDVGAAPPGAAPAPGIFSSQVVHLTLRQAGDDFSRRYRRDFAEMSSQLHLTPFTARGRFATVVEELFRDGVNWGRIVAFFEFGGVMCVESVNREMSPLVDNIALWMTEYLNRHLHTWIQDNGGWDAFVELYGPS


What was measured:
Bcl-2, P10415 [1] = experiment: peptide SPOT array, c-Myc-tagged receptor at 1 uM or 100 nM, anti-c-Myc-Cy3
Target sequence in this assay (P10415 1-217): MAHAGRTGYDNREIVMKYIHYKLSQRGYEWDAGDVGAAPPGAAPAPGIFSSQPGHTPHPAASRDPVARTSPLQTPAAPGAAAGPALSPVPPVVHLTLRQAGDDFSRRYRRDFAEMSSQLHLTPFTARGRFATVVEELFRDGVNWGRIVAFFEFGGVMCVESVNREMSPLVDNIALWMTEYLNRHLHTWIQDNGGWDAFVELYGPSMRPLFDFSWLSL

Bcl-xL, Q07817 [2] = experiment: as above
Bfl-1, Q16548 [3] = molecular target: T1, Bfl-1, Q16548; experiment: as above
Mcl-1, Q07820 [4] = molecular target: T2, Mcl-1, Q07820; experiment: as above
Bcl-w, Q92843 [5] = molecular target: T3, Bcl-w, Q92843; experiment: as above
Bcl-2, P10415 [6] = molecular target: T4, Bcl-2, P10415; experiment: fluorescence polarisation, direct titration of receptor into 10 nM labelled peptide
Bcl-xL, Q07817 [7] = experiment: as above
Bfl-1, Q16548 [8] = molecular target: T1, Bfl-1, Q16548; experiment: as above
Mcl-1, Q07820 [9] = molecular target: T2, Mcl-1, Q07820; experiment: as above
Bcl-w, Q92843 [10] = molecular target: T3, Bcl-w, Q92843; experiment: as above
[11] = molecular target: PXT1 BH3-like peptide (human); experiment: fluorescence polarisation; direct binding: 10 nM FAM-labeled peptide, receptor serially diluted; 25°C; 20 mM NaPO4, 50 mM NaCl, 1 mM EDTA, 0.001% Triton X, pH 7.8; single-site binding model

Chain of Bcl-xL, Q07817 (Q07817 1-209): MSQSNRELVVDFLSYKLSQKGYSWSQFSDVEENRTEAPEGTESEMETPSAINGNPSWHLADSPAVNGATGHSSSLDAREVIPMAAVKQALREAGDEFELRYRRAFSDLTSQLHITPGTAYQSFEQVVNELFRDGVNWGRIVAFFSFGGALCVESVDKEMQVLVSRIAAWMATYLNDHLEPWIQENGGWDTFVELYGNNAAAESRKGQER

| Binder | SPOT signal as a fraction of Bim BH3's signal on the same receptor and array (Bcl-2, P10415 [1]) | SPOT signal as a fraction of Bim BH3's signal on the same receptor and array (Bcl-xL, Q07817 [2]) | SPOT signal as a fraction of Bim BH3's signal on the same receptor and array (Bfl-1, Q16548 [3]) | SPOT signal as a fraction of Bim BH3's signal on the same receptor and array (Mcl-1, Q07820 [4]) | SPOT signal as a fraction of Bim BH3's signal on the same receptor and array (Bcl-w, Q92843 [5]) | Kd (Bcl-2, P10415 [6]) [nM] | Kd (Bcl-xL, Q07817 [7]) [nM] | Kd (Bfl-1, Q16548 [8]) [nM] | Kd (Mcl-1, Q07820 [9]) [nM] | Kd (Bcl-w, Q92843 [10]) [nM] | Kd [11] [nM] |
| --- | --- | --- | --- | --- | --- | --- | --- | --- | --- | --- | --- |
| FTGNNTAVQELKRVSEQFTATFRRKA [TUBB4Q] | 0.19 | 0.93 | 0.8 | 0.41 | 0.92 | 1410 | 2050 | > 4660 | 1460 | 2490 |  |
| Bfl-1 (natural protein) MTDCEFGYIYRLAQDYLQCVLQIPQPGSGPSKTSRVLQNVAFSVQKEVEKNLKSCLDNVNVVSVDTARTLFNQVMEKEFEDGIINWGRIVTIFAFEGILIKKLLRQQIAPDVDTYKEISYFVAEFIMNNTGEWIRQNGGWENGFVKKFEPKSGWMTFLEVTGKICEMLSLLKQYC |  |  |  |  |  |  |  |  |  |  | < 30 |
| EVLAGPLAQRLSHIAEDVGRLVKKSR [ARHGAP4] | 0.1 | 0.4 | 0.4 | 0.28 | 0.94 | 6090 | 3060 | > 5600 | > 2430 | 749 |  |
| Bcl-w (natural protein) MATPASAPDTRALVADFVGYKLRQKGYVCGAGPGEGPAADPLHQAMRAAGDEFETRFRRTFSDLAAQLHVTPGSAQQRFTQVSDELFQGGPNWGRLVAFFVFGAALCAESVNKEMEPLVGQVQEWMVAYLETQLADWIHSSGGWAEFTALYGDGALEEARRLREGNWASVRTVLTGAVALGALVTVGAFFASK |  |  |  |  |  |  |  |  |  |  | < 30 |
| FERVEQMCIQIKEVGDRVNYIKRSLQ [TRPM7] | 0.38 | 0.34 | 0.49 | 0.44 | 0.2 | 124 | 679 | 1900 | 592 | 2490 |  |

More lines, in order of falling Kd (Bcl-2, P10415 [6]), values ahead:

| SPOT signal as a fraction of Bim BH3's signal on the same receptor and array (Bcl-2, P10415 [1]) | SPOT signal as a fraction of Bim BH3's signal on the same receptor and array (Bcl-xL, Q07817 [2]) | SPOT signal as a fraction of Bim BH3's signal on the same receptor and array (Bfl-1, Q16548 [3]) | SPOT signal as a fraction of Bim BH3's signal on the same receptor and array (Mcl-1, Q07820 [4]) | SPOT signal as a fraction of Bim BH3's signal on the same receptor and array (Bcl-w, Q92843 [5]) | Kd (Bcl-2, P10415 [6]) [nM] | Kd (Bcl-xL, Q07817 [7]) [nM] | Kd (Bfl-1, Q16548 [8]) [nM] | Kd (Mcl-1, Q07820 [9]) [nM] | Kd (Bcl-w, Q92843 [10]) [nM] | Kd [11] [nM] | Binder |
| --- | --- | --- | --- | --- | --- | --- | --- | --- | --- | --- | --- |
| 0.01 | 0.11 | 0.02 | 0.02 | 0.02 | 562 | 2720 | > 4000 | > 10000 | > 4000 |  | TDENKKVGLALKDLAKQYSDRLECCE [NUB1] |
| 0.13 | 0.26 | 0.99 | 0.9 | 0.99 | 14 | 8 | 1 | 0.9 | 5 |  | EEIIHKLAMQLRHIGDNIDHRMVRED [PXT1] |
